Results: PMC9020777
Each block holds one binder with its values, some of them ahead of it.

Assays:
Experiment in all cases: FRET or BRET
Conditions in all cases: remark: other sources report otherwise
[1] = target: mCerulean3-MCL-1 (human), Q07820
[2] = target: mCerulean3-BCL-2 (human), P10415
[3] = target: mCerulean3-BCL-XL (human), Q07817
[4] = target: mCerulean3-BCL-2 (^CBCL-2) (human), P10415
Chain of mCerulean3-BCL-2 (^CBCL-2) (human), P10415 (P10415 whole entry): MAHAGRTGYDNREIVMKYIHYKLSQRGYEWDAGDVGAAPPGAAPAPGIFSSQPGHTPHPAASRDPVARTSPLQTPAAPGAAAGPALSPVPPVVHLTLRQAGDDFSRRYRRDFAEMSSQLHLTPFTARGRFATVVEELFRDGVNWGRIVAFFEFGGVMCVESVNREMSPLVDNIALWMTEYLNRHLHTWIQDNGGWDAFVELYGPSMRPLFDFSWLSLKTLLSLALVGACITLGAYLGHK

Chain of mCerulean3-BCL-2 (human), P10415 (P10415 whole entry): as above
Chain of mCerulean3-MCL-1 (human), Q07820 (Q07820 whole entry): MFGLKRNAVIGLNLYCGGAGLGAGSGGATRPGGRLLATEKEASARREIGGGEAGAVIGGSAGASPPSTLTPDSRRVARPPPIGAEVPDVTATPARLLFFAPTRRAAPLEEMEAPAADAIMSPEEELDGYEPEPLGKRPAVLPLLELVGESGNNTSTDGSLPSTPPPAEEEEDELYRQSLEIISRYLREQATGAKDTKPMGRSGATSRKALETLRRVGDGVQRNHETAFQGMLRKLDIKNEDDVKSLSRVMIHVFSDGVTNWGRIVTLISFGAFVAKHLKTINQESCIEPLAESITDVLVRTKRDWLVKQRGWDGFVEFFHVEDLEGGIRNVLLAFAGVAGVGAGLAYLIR
Chain of mCerulean3-BCL-XL (human), Q07817 (Q07817 whole entry): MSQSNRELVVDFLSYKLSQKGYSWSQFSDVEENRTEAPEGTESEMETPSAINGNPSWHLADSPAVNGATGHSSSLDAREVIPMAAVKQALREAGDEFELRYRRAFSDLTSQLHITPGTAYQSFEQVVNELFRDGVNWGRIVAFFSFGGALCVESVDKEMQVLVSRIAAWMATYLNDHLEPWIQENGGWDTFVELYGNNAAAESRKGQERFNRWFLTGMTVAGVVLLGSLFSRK

- Kd [1]: 6 µM
- Kd [2]: 3 µM
B1: Venus-BIK, Q13323 1-160 (natural protein)
chain: MSEVRPLSRDILMETLLYEQLLEPPTMEVLGMTDSEEDLDPMEDFDSLECMEGSDALALRLACIGDEMDVSLRAPRLAQLSEVAMHSLGLAFIYDQTEDIRDVLRSFMDGFTTLKENIMRFWRSPNPGSWVSCEQVLLALLLLLALLLPLLSGGLHLLLK

- Kd [2]: 4 µM
- Kd [3]: 7 µM
B2: Venus-BAD, Q92934 1-168 (natural protein)
chain: MFQIPEFEPSEQEDSSSAERGLGPSPAGDGPSGSGKHHRQAPGLLWDASHQQEQPTSSSHHGGAGAVEIRSRHSSYPAGTEDDEGMGEEPSPFRGRSRSAPPNLWAAQRYGRELRRMSDEFVDSFKKGLPRPKSAGTATQMRQSSSWTRVFQSWWDRNLGRGSSAPSQ

- Kd [4]: 8 µM
B3: Venus-NOXA (^VNOXA), Q13794 1-54 (natural protein)
chain: MPGKKARKNAQPSPARAPAELEVECATQLRRFGDKLNFRQKLLNLISKLFCSGT
